Test results: US20210139574A1

Target: Tau seeds: brain fraction from transgenic mice expressing human Tau P301S (human), P10636
Assay: cell-based or functional assay

Tau seeds: brain fraction from transgenic mice expressing human Tau P301S (human), P10636, sequence (P10636 other isoform, or with tags, fused parts or gaps P301S P301S): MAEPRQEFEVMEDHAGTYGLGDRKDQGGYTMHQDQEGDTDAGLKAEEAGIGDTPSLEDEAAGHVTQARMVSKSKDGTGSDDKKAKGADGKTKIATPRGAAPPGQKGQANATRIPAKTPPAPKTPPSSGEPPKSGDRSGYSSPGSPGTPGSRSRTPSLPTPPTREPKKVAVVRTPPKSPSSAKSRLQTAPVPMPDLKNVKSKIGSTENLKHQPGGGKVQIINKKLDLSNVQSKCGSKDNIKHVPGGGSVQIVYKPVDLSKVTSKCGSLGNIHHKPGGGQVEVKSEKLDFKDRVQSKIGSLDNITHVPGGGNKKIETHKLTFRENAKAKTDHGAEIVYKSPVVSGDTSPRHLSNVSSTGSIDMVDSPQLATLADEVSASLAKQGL

B1: AB1 having a murinised VL of SEQ ID NO: 9 and a murinised VH of SEQ ID NO.: 10 (antibody, V domains shown)
VL: DVVMTQSPASLAVSLGQRATISCQASQSVSSYLAWYQQKPGQPPKLLIYAASYLASGVPSRFKGSGSGTEFTLNIHPVEEEDAATYYCQQGYTRTDIDNTFGGGTKLEIK
VH: QVQLKESGPGLVAPSQSLSITCTVSGIDLSTWRMNWVRQPPGKGLEWIGIIGTGGRTYYANWAKGRFSISKDSTQVFLKMNSLQTEDTATYFCARLGANNNGYPLDLWGAGTTVTVSS
  IC50, cellular Tau aggregation assay: 8 nM
  Imax (maximal efficacy at 300 nM), cellular Tau aggregation assay: 62%
